Experimental data reported in paper PMC5531254.

How the values were obtained:
[1] = molecular target: PIH1D1 (UniProt Q9NWS0); experiment: anti-FLAG co-IP, MYC blot; settings: reference: FLAG MRE11 wild type
[2] = molecular target: PIH1D1 (UniProt Q9NWS0); experiment: GST pull-down with FLAG-purified MRE11; settings: reference: FLAG MRE11 wild type

| binding against the reference ([1]; sites S558,S561) | binding against the reference ([2]; sites S558,S561) | binding against the reference ([1]; sites S688,S689) | binding against the reference ([2]; sites S688,S689) | Substance |
| --- | --- | --- | --- | --- |
| weaker | weaker | – | – | MRE11 (from UniProt P49959) M1 (S558A/S561A) |
| – | – | weaker | weaker | MRE11 (from UniProt P49959) M3 (S688A/S689A) |
